Test results published in PMC12080921 (2025).

B1: biotinylated bovine FI (enzyme)
chain 1: EDNFRKRGKSKAVKKSEAHHAPEASLSKETEASSEVKPTSTQDTSQKDFVDKKCLTEKHTHLSCNKVFCQPWQKCIDGTCLCKLPYQCPKNGTRVCSTNGKSYSTYCQQKSFECYRPEAKFLKSGACTGGGQFSVSLSNGKQDSEGIVAVKLADLDTKMFVCGDSWSITEANVACIDRGFQLGALDTHRRDPDPNSAECLHVRCRGLETSLAECTFTKGVHNSEGLAGVVCYTESAAPPKKDSFQCVNGKRIPQKKACDGVNDCVDKSDELCCKDCRGEGFLCKSGVCIPKQYKCNGELDCITGEDEVGCEETGHPEIKEAAEMLTADMDAERKFTKSFLPKLSCGVKNNMHI
chain 2: VVGGKPAKMGEFPWQMAIKEGDKIHCGGIYIGGCWILTAAHCVRISRMHRYQIWTSFTDWLRPGFQTVVHSVNRIIIHENYNGTTYQNDIALIEMKKRPNEKECVLSKSIPACVPWSPYLFQPNDKCIVSGWGREKDNQKVYSLRWGEVHLINNCSEFYPGRYFEKEMQCAGTDDGSIDACKGDSGGPLVCQDVNNVTYVWGVVSWGENCGKSEFPGVYTKVANYFDWISQHVGRSLISQHNI
modifications: biotin (EZ-link NHS-biotin; sites not stated) | biotin (EZ-link NHS-biotin; sites not stated)
B2: PmSLP-1^15-318 (domain or fragment)
chain: MEKRTVTIPQAQKVAEKPALTIQTVVTSPTTPIKAPSLAPTIDTAPKQNPVPTAQITATLPAEPVKVPVLIPEVNKTLLETSTNPVKDSYNKDAVFTYELIANPDADYSDQKLILKKEISYIKLNLGINQDNKNAPSYIFNLLDDNVYYGFYRDTQDMNRIENKYTYAFKKEAENFDNLQKFNATYEGQFWFSSIDTPNVPTVARAFLTYNNGRVDGEILAKHWNEKLFQITGFDNNPRKVEIFPTVEYLPNSGTRLTKGATSPHRFQMDLHFINSTNGEKNKYLVGQGSTEQYWGVLGMEKKQELALVPR

Assays:
[1] = target: T1, PmSLP-1^95-318 SERp (Pasteurella multocida strain 36950); experiment: BLI
[2] = target: T1, PmSLP-1^95-318 SERp; experiment: BLI; kinetic fit
[3] = target: B1; experiment: BLI
[4] = target: B1; experiment: BLI; kinetic fit

Row | Binder | koff [1] [s⁻¹] | Kd [2] [nM] | koff [3] [s⁻¹] | Kd [4] [nM]
1 | B1 | 0.008 | 30 | – | –
2 | B2 | – | – | 0.0059 | 18
